{"source": "patent US20110165078A1", "about": "(UNIVERSITY COURT OF THE UNIVERSITY OF ABERDEEN, published 2011)", "key": {"[1]": {"target": "T1, rat synaptophysin (in rat hepatic stellate cells) (rat, UniProt P07825 1-307)", "T1 construct": "In rat HSC extracts on a Western blot; also called synaptophysin in rat HSCs; rHSCs", "T1 sequence (P07825 whole entry)": "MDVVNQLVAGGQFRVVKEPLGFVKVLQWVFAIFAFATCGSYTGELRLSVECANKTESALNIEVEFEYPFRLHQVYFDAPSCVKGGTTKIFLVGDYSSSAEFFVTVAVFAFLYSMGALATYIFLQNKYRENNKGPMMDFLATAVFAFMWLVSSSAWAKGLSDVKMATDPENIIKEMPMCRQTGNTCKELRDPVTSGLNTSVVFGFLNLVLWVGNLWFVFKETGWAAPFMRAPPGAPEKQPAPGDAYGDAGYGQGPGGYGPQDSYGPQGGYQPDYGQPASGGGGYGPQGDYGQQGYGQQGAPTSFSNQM", "assay": "Western blot of cell extracts (5 µg/lane) probed with C1-3 scAb"}, "[2]": {"target": "T2, target peptide-BSA conjugate (…-BSA) (human; bovine, UniProt P02769 25-607, chemically conjugated to bovine serum albumin (BSA) using 3 maleimidoacetic acid N-hydroxysuccinimide (MBS))", "T2 construct": "Typically on average ~4 peptide molecules per molecule of albumin; also called BSA-target peptide; BSA-peptide 2", "T2 sequence (P02769 25-607 limits assumed)": "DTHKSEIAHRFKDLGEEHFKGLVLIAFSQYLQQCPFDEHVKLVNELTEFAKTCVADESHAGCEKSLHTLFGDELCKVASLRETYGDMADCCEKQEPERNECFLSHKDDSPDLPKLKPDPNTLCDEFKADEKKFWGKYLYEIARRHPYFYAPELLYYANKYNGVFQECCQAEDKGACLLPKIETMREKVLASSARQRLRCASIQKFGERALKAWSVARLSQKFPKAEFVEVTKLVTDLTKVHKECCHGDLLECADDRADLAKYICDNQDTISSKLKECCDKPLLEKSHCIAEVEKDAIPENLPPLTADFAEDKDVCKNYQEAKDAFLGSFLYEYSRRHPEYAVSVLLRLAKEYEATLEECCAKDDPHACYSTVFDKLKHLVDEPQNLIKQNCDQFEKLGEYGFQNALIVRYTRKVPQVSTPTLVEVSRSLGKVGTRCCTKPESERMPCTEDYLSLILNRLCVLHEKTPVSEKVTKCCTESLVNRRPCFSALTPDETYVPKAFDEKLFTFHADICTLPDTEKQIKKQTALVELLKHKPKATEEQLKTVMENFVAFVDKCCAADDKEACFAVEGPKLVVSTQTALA", "assay": "ELISA on coated peptide-BSA or BSA, detection with HRP anti-human Cκ"}}}
{"binder": "C1-3 scAb (scFv, Single-chain antibody fragment: scFv fused to human C kappa and a hexa-histidine tag, expressed from pIMS147 in E. coli XL-1 blue; also called C1-3 scFv; clone pIMS147 C1-3) scFv: MAEVQLLESGGGLVQPGGSLRLSCAASGFTFSSYAMSWVRQAPGKGLEWVSTIAASGPSTGYADSVKGRFTISRDNSKNTLYLQMNSLRAEDTAVYYCAKTTAKFDYWGQGTLVTVSSGGGGSGGGGSGGGGSTDIQMTQSPSSLSASVGDRVTITCRASQSISSYLNWYQQKPGKAPKLLIYSASRLQSGVPSRFNGSGSGTDFTLTISSLQPEDFATYYCQQLQRKPTTFGQGTKVEIKRGAAAPSVFIFPPSDEQLKSGTASVVCLLNNFYPREAKVQWKVDNALQSGNSQESVTEQDSKDSTYSLSSTLTLSKADYEKHKVYACEVTHQGLSSPVTKSFNRGESHHHHHH", "values": [{"measurement": "binding result", "setting": "[1]", "result": "no binding"}, {"measurement": "fold more scAb bound to peptide-BSA than to BSA alone", "setting": "[2]", "result": "~8", "unit": "times"}]}
